Measured values as given in US20260209386A1 (MYTHIC THERAPEUTICS, published 2026).

T1: Human PTK7/CCK4 Protein, His Tag, Acro Biosystems PT7-H52H3 (human, UniProt Q13308 31-704)
T1 construct: bought protein; also called Human PTK7 Protein, His Tag, Acro Biosystems; not shown: His tag
T1 sequence: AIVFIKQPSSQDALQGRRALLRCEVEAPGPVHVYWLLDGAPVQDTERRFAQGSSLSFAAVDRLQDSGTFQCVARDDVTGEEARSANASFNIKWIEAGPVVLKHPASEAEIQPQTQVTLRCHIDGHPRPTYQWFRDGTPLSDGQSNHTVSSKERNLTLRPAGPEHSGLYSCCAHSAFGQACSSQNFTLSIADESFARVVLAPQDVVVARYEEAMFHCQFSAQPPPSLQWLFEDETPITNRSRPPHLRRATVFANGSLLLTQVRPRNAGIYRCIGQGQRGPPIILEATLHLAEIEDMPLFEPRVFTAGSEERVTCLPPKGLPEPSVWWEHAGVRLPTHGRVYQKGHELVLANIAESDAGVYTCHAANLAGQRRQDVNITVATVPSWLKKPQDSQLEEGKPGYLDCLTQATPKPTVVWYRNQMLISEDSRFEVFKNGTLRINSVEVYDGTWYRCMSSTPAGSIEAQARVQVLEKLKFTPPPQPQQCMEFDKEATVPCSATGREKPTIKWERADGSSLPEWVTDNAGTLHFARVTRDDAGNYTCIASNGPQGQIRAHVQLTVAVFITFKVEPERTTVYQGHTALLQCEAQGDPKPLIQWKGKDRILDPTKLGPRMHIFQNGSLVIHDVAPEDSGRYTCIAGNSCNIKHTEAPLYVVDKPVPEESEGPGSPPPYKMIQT


Molecular target: T1, Human PTK7/CCK4 Protein, His Tag, Acro …
Assay: BLI, antibody on anti-human Fc sensor, 50 nM PTK7

Row | binding result | Binder
1 | binds | MYT10957 (antibody, V domains shown, IgG) VH: EVQLVESGGGLVQPGGSLRLSCTASGFSLSSHAMGWVRQAPGKGLEWVGFINAGGNTYYANWAKGRFTISRDTSKNTVYLQMNSLRAEDTAVYFCARRYSRASGWYDLWGQGTLVTVSS VL: EIVMTQSPSTLSASVGDRVIITCQASQSISSYLAWYQQKPGKAPKLLIYAASTLASGVPSRFSGSGSGAEFTLTISSLQPDDFATYYCQSYSYSSGIDYGDVFGQGTKLTVL
2 | binds | MYT10939 (antibody, V domains shown, IgG) VH: EVQLVESGGGLVQPGGSLRLSCTASGFSLSNYVMNWVRQAPGKGLEWVGIIDSSGSTYYASWAKGRFTISRDTSKNTVYLQMNSLRAEDTAVYFCARGLYLWGQGTLVTVSS VL: EIVMTQSPSTLSASVGDRVIITCQSSQSVYNNNLLAWYQQKPGKAPKLLIYYTSNLASGVPSRFSGSGSGAEFTLTISSLQPDDFATYYCHGGYNGNIYAFGQGTKLTVL
3 | binds | MYT10946 (antibody, V domains shown, IgG) VH: EVQLVESGGGLVQPGGSLRLSCTASGFSLSNYVMNWVRQAPGKGLEWVGIIDSSGSTYYASWAKGRFTISRDTSKNTVYLQMNSLRAEDTAVYFCARGLYLWGQGTLVTVSS VL: EIVMTQSPSTLSASVGDRVIITCQSSQSVYNNNLLAWYQQKPGKAPKLLIYYTSNLASGVPSRFSGSGSGAEFTLTISSLQPDDFATYYCQGGYNGNHYAFGQGTKLTVL
4 | binds | MYT10943 (antibody, V domains shown, IgG) VH: EVQLVESGGGLVQPGGSLRLSCTASGFSLSNYVMNWVRQAPGKGLEWVGIIDSSGSTYYASWAKGRFTISRDTSKNTVYLQMNSLRAEDTAVYFCARGLYLWGQGTLVTVSS VL: EIVMTQSPSTLSASVGDRVIITCQSSQSVYNNNLLAWYQQKPGKAPKLLIYYTSNLASGVPSRFSGSGSGAEFTLTISSLQPDDFATYYCQGGYHGNIYAFGQGTKLTVL

The remaining lines, values behind:

Row | Binder | binding result
5 | MYT10951 (antibody, V domains shown, IgG) VH: EVQLVESGGGLVQPGGSLRLSCTASHFSLSSYAMGWVRQAPGKGLEWVGFINAGGNTYYANWAKGRFTISRDTSKNTVYLQMNSLRAEDTAVYFCARRYSRASGWYDLWGQGTLVTVSS VL: EIVMTQSPSTLSASVGDRVIITCQASQSISSYLAWYQQKPGKAPKLLIYAASTLASGVPSRFSGSGSGAEFTLTISSLQPDDFATYYCQSYSYSSGIDYGDVFGQGTKLTVL | binds
6 | MYT10944 (antibody, V domains shown, IgG) VH: EVQLVESGGGLVQPGGSLRLSCTASGFSLSNYVMNWVRQAPGKGLEWVGIIDSSGSTYYASWAKGRFTISRDTSKNTVYLQMNSLRAEDTAVYFCARGLYLWGQGTLVTVSS VL: EIVMTQSPSTLSASVGDRVIITCQSSQSVYNNNLLAWYQQKPGKAPKLLIYYTSNLASGVPSRFSGSGSGAEFTLTISSLQPDDFATYYCQGGYNHNIYAFGQGTKLTVL | binds
7 | MYT10942 (antibody, V domains shown, IgG) VH: EVQLVESGGGLVQPGGSLRLSCTASGFSLSNYVMNWVRQAPGKGLEWVGIIDSSGSTYYASWAKGRFTISRDTSKNTVYLQMNSLRAEDTAVYFCARGLYLWGQGTLVTVSS VL: EIVMTQSPSTLSASVGDRVIITCQSSQSVYNNNLLAWYQQKPGKAPKLLIYYTSNLASGVPSRFSGSGSGAEFTLTISSLQPDDFATYYCQGGHNGNIYAFGQGTKLTVL | binds
8 | MYT10949 (antibody, V domains shown, IgG) VH: EVQLVESGGGLVQPGGSLRLSCTASGFSLSNYVMNWVRQAPGKGLEWVGIIDSSGSTYYASWAKGRFTISRDTSKNTVYLQMNSLRAEDTAVYFCARGLYLWGQGTLVTVSS VL: EIVMTQSPSTLSASVGDRVIITCQSSQSVYNNNLLAWYQQKPGKAPKLLIYYTSNLASGVPSRFSGSGSGAEFTLTISSLQPDDFATYYCQGGYNGNIYAFGQGTKLEIK | binds
